Experimental findings from article PMC6158489 are described below.

This data set deals with VpsR (Vibrio cholerae). The data set is described as follows: EMSA. Background: A gel shift assay detects complexes by their altered migration in electrophoresis.

What is called Kd is the free concentration of one partner at which half of the binding sites on the other are occupied at equilibrium, for simple one-to-one binding. Read a high Kd as lower affinity.

Several values for one entry are separate records, joined by “and”; a condition that tells them apart may be missing. Equal entries are not always repeated.

Turning to PvpsL promoter fragment (-97 to +113), the equilibrium dissociation constant (Kd) was 2220 nM and 1660 nM.
